Entries after “also recorded” stand apart in the source; their conditions may differ.
Legend:
[1] = tested on: POTH1 overexpression lines; experiment: Exogenous GA3 application to POTH1 overexpression lines; assay type: in vivo, Solanum tuberosum
From the text: Many of the traits of the phenotypes observed in POTH1 overexpression lines were similar to GA-deficient mutants. These similarities included decreased plant height, decreased internode length, and darker green coloration of the leaves (van den Berg et al., “Morphology and [^14C]Gibberellin A12 Metabolism in Wild-Type and Dwarf Solanum Tuberosum ssp. Andigena Grown Under Long and Short Photoperiods,” J. Plant Physiol. 146:467-473 (1995), which is hereby incorporated by reference in its entirety). Because of this, exogenous GA3 was applied to determine whether the overexpression lines were responsive to GA treatment. The shoot apex of overexpression lines was sprayed to runoff with 10 μM GA3 in 0.002% (v/v) ethanol or with 0.002% (v/v) ethanol alone. […] Palisade and spongy parenchyma organization is partially rescued in leaves from line 15 treated with GA3 (FIG. 5G). The GA3-treated leaf (FIG. 5J) of the severe mutant, line 15, is more similar in morphology to the wild-type leaf (FIG. 5K). Leaflets are more ovate in form rather than the typical mouse-ear shape. Wild-type leaves have a prominent mid-vein (FIG. 5L), whereas the mid-vein (FIG. 5M, arrow) is more prominent in the mutant GA3-treated leaf than in the mutant untreated leaf (FIG. 5N). […]

POTH1 = experiment: Yeast two-hybrid interaction with POTH1; assay type: binding, Solanum tuberosum; conditions: nutritional selection and lacZ activation, yeast AH109
From the text: The Matchmaker two-hybrid system (Clontech, Calif.) was used for the yeast two-hybrid screen. Yeast transformation and plasmid rescue into DH5-α E. coli cells were according to the manufacturer's instructions. Full-length POTH1 was cloned into the pBridge (Clontech, Calif.) vector and used as bait to screen the potato (S. tuberosum ‘Desireé’) stolon cDNA library in pAD-GAL4-2.1 (Stratagene, Calif.). Positive interactions were confirmed by cotransforming yeast strain AH109 with each purified pAD plasmid and pBridge: POTH1 and plating on -leucine/-tryptophan (transformation control) and -leucine/-tryptophan/-histidine/-adenine (selection) nutrient medium. Induction of the AH109 reporter gene, lacZ, was measured with a yeast β-galactosidase assay kit (Pierce Chemicals). β-galactosidase activity (FIG. 9B) was determined from a known density of yeast cells and calculated as 1000×OD420/time of color reaction (minutes)×volume of yeast culture (ml)×OD600.
The StBEL-05 deletion constructs were amplified by PCR, then cloned into the vector, pGAD, in-frame with the GAL4 activation domain. POTH1 deletion constructs were amplified by PCR, and cloned into pBridge (Clontech) in-frame with the GAL4 binding domain. Sequencing of selected cDNAs and constructs was performed at the Iowa State University DNA Facility. For deletion analysis, modified constructs of POTH1 were cloned into the pBridge vector for fusion with the DNA-binding domain of GAL4 (FIG. 10A). For StBEL-05, constructs were cloned into the pGAD vector for fusion with the activating domain of GAL4 (FIG. 10B). Deletion constructs were made from both the amino and carboxy termini. These mutants were then tested for interaction in the yeast two-hybrid system by cotransforming into yeast strain AH109 with the corresponding full-length partner (StBEL-05 in pGAL4 or POTH1 in pBridge). All constructs were sequenced to verify that they were in-frame. Positive interactions were verified for lacZ induction by using a β-galactosidase assay (Pierce Chemical Company). For POTH1, seven deletion constructs were tested (FIG. 10A). For the BEL TFs, a fusion construct of StBEL-05 (653 aa of StBEL-05 sequence) and nine deletion constructs were tested (FIG. 10B).

POTH1, sequence (as listed by the source): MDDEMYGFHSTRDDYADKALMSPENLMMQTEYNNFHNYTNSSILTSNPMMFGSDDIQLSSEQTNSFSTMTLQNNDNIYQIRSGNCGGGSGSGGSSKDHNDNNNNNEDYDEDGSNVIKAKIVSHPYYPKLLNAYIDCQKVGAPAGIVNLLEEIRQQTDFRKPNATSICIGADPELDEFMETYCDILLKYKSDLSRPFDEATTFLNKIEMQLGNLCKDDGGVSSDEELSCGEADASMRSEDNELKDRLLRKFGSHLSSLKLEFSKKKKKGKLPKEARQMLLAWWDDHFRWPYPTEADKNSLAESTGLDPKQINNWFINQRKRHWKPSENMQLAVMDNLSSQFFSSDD

| Molecule | effect on leaf morphology ([1]; 10 μM GA3 sprayed on shoot apex) | effect on dwarf phenotype ([1]; GA3 application) | interaction with POTH1 (POTH1) |
| --- | --- | --- | --- |
| C=C1C[C@]23C[C@@]1(O)CC[C@H]2[C@@]12C=C[C@H](O)[C@@](C)(C(=O)O1)[C@H]2[C@@H]3C(=O)O [GA3] | partially rescued the leaf morphology of both severe and intermediate phenotypes; also recorded: partial reversal of the leaf phenotype | completely rescued the dwarf phenotype | – |
| pAD5-9: StBEL-05 deletion construct, aa 1 through 315 (protein, left off: large carriers) MNPNNYMQGYTTSDTQQQQQLLFLNSSPAASNALCHANIQHAPLQQQHFVGVPLPAVSLHDQINHHGLLQRMWNNQDQSQQVIVPSSTGVSATSCGGITTDLASQLAFQRPIPTPQHRQQQQQQGGLSLSLSPQLQQQISFNNNISSSSPRTNNVTIRGTLDGSSSNMVLGSKYLKAAQELLDEVVNIVGKSIKGDDQKKDNSMNKESMPLASDVNTNSSGGGESSSRQKNEVAVELTTAQRQELQMKKAKLLAMLEEVEQRYRQYHHQMQIIVLSFEQVAGIGSAKSYTQLALHAISKQFRCLKDAIAEQVKAT | – | – | demonstrated an interaction; also recorded: interaction with POTH1 |
| StBEL-14: BEL transcription factor from Solanum tuberosum, SEQ ID NO:8 (protein, listed as Solanum tuberosum) MVNHQLQNFETNPEMYNLSSTTSSMDQMIGFPPNNNNPHHVLWKGNFPNKINGVDDDDHGPSSSKNIISEQFYQHGSHENMLTTTTTHHDDHQGSWHHDNNRTLLVDDPSMRCVFPCEGNERPSHGLSLSLCSSNPSSIGLQSFELRHQDLQQGLIHDGFLGKSTNIQQGYFHHHHQVRDSKYLGPAQELLSEFCSLGIKKNNDHSSSKVLLKQHESTASTSKKQLLQSLDLLELQKRKTKLLQMLEEVDRRYKHYCDQMKAVVSSFEAVAGNGAATVYSALASRAMSRHFRCLRDGIVAQIKATKMAMGEKDSTSTLIPGSTRGETPRLRLLDQTLRQQKAFQQMNMMETHPWRPQRGLPERSVSVLRAWLFEHFLHPYPSDVDKHILARQTGLSRSQVSNWFINARVRLWKPMVEEMYLEETKEEENVGSPDGSKALIDDMTIHQSHIDHHQADQKPNLVRIDSECISSIINHQPHEKNDQNYGVIRGGDQSFGAIELDFSTNIAYGTSGGDHHHHGGGVSLTLGLQQHGGSGGSSMGLTTFSSQPSHNQSSLFYPRDDDQVQYSSLLDSENQNLPYRNLDGGTTSS | – | – | showed selective interaction |
| StBEL-29: BEL transcription factor from Solanum tuberosum, SEQ ID NO:12 (protein, listed as Solanum tuberosum) QGLSLSLSSSQQPGFGNFTAARELVSSPSGSASASGIQQQQQQQQSISSVPLSSKYMKAAQELLDEVVNVGKSMKSTNSTDVVVNNDVKKSKNMGDMDGQLDGVGADKDGAPTTELSTGERQEIQMKKAKLVNMLDEVEQRYRHYHHQMQSVIHWLEQAAGIGSAKTYTALALQTISKQFRCLKDAIIGQIRSASQTLGEEDSLGGKIEGSRLKFVDNQLRQQRALQQLGMIQHNAWRPQRGLPERAVSVLRAWLFEHFLHPYPKDSDKMMLAKQTGLTRSQVSNWFINARVRLWKPMVEEMYLEEIKEHEQNGLGQEKTSKLGEQNEDSTTSRSIATQDKSPGSDSQNKSFVSKQDNHLPQHNPASPMPDVQRHFHTPIGMTIRNQSAGFNLIGSPEIESINITQGSPKKPRNNEMLHSPNSIPSINMDVKPNEEQMSMKFGDDRQDRDGFSLMGGPMNFMGGFGAYPIGEIARFSTEQFSAPYSTSGTVSLTLGLPHNENLSMSATHHSFLPIPTQNIQIGSEPNHEFGSLNTPTSAHSTSSVYETFNIQNRKRFAAPLLPDFVA | – | – | showed selective interaction |
| StBEL-11: BEL transcription factor from Solanum tuberosum, SEQ ID NO:4 (protein, listed as Solanum tuberosum) MTFRSSLPLDLREISTTNHQVGILSSSPLPSPGTNTNNINHTRGLGASSSFSISNGMILGSKYLKVAQDLLDEVVNVGKNIKLSDGLESGAKEKHKLDNELISLASDDVESSSQKNSGVELTTAQRQELQMKKAKLVSMLDEVDQRYRQYHHQMQMIATSFEQTTGIGSSKSYTQLALHTISKQFRCLKDAISGQIKDTSKTLGEEENIGGKIEGSKLKFVDHHLRQQRALQQLGMMQTNAWKPQRGLPERAVSVLRAWLFEHFLHPYPKDSDKIILAKQTGLTRSQVSNWFINARVRLWKPMVEEMYMEEVKKNNQEQNIEPNNNEIVGSKSSVPQEKLPISSNIIHNASPNDISTSTISTSPTGGGGSIPTQTVAGFSFIRSLNMENIDDQRNNKKARNEMQNCSTSTILSMEREIINKVVQDETIKSEKFNNTQTRECYSLMTPNYTMDDQFGTRFNNQNHEQLATTTTFHQGNGHVSLTLGLPPNSENQHNYIGLENHYNQPTHHPNISYENIDFQSGKRYATQLLQDFVS | – | – | showed selective interaction |
| StBEL-22: BEL transcription factor from Solanum tuberosum, SEQ ID NO:10 (protein, listed as Solanum tuberosum) TSVYETAGLLSEMFNFQTTSTAATELLQNQLSNNYRHPNQQPHHQPPTREWFGNRQEIVVGGSLQVTFGDTKDDVNAKVLLSNRDSVTDYYQRQHNQVPSINTAESMQLFLMNPQPSSPSQSTPSTLHQGFSSPVGGHFSQFMCGGASTSSNPIGGVNVIDQGQGLSLSLSSTLQHLEASKVEDLRMNSGGEMLFFNQESQNHHNIGFGSSLGLVNVLRNSKYVKATQELLEEFCCVGKGQLFKKINKVSRNNNTSTSPIINPSGSNNNNSSSSKAIIPPNLSTAERLDHQRRKVKLLSMLDEVEKRYNHYCEQMQMVVNSFDLVMGFGAAVPYTALAQKAMSRHFKCLKDGVAAQLKKTCEALGEKDASSSSGLTKGETPRLKVLEQSLRQQRAFQQMGMMEQEAWRPQRGLPERSVNILRAWLFEHFLHPYPSDADKHLLARQTGLSRNQVANWFINARVRLWKPMVEEMYQREVNEDDVDDMQENQNSTNTQIPTPNIIITTNSNITETKSAATATIASDKKPQINVSEIDPSIVAMNTHYSSSMPTQLTNFPTIQDESDHILYRRSGAEYGTTNMASNSEIGSNMITFGTTTASDVSLTLGLRHAGNLPENTHFSG | – | – | showed selective interaction |

Reference: patent US7265263B1, “Potato transcription factors, methods of use thereof, and a method for enhancing tuber development” (Iowa State University Research Foundation, Inc., priority 2002, dated 2007)
